This assay has as its target ANAPC2CW fragment (mouse ANAPC2 cullin-Winged-helix subdomain; residues 512–837) (mouse, UniProt Q8BZQ7 512-837). The experiment in a line: NMR titration.

Chain of ANAPC2CW fragment (mouse ANAPC2 cullin-Winged-helix subdomain; residues 512–837) (Q8BZQ7 512-837): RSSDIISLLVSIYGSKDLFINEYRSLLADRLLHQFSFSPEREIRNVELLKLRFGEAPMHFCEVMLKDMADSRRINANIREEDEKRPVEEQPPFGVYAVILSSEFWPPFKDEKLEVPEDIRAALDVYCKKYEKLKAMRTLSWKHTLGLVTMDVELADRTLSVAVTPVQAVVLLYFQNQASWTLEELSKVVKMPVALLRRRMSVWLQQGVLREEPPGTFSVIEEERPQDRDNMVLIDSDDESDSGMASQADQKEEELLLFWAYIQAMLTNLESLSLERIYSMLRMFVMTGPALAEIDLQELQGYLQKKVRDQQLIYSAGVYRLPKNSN

B1: Emi2 ZBR–RL fragment (mouse Emi2; residues 547–641), 13C- and 15N-labeled (domain or fragment, UniProt Q8CDI2 546-640, looked up)
chain: LTHLRSKQEQYVKVARTLFTDEALKPCPRCQSPAKYQPHKKRGLCSRLACGFDFCVLCLCAYHGSEDCRRGSAKARGSKDVLPGSAQSKRNLKRL
modifications: [15N, 13C]-labeled
As for B1, the binding result is given as “binds”.

Values taken from PMC4141206 (FEBS Open Bio, 2014).
